Results on one molecule are retold here after article doi:10.1101/2022.04.06.487260, “The purified recombinant FAT domain of the Focal Adhesion Kinase does not bind directly to recombinant Talin or MBD2 in vitro” (bioRxiv, 2022).

A value given as a limit tells only on which side of the number the result lay.

For the assay, the target named is T1, Talin F2F3 (206-405, C336S) (UniProt Q9Y490 206-405, C336S).
T1 construct: Talin (head 1-433, rod 434-2541), F2 and F3 lobes of the FERM domain, residues 206-405; gene codon optimised and synthesised; the purification (beads before and after cleavage, elution as a 25 kDa protein) describes the cleaved protein; also called Talin206-405; Talin F2F3 head
Put plainly: NMR titration; 1H-15N HSQC; 90 μM 15N-labelled FAT incubated with Talin at molar ratios of 1:0.5, 1:1 and 1:2; 25 °C. The following applies: both partners purified.

T1 sequence (Q9Y490 206-405 C336S): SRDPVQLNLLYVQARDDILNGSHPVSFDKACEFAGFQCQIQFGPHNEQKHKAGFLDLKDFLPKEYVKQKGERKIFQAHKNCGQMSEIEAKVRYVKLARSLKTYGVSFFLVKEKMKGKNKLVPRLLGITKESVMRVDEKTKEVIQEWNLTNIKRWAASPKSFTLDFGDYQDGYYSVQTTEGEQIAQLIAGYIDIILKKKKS

B1: FAT domain of human FAK (892-1052) (domain or fragment, UniProt Q05397 892-1052, looked up)
chain: SSPADSYNEGVKLQPQEISPPPTANLDRSNDKVYENVTGLVKAVIEMSSKIQPAPPEEYVPMVKEVGLALRTLLATVDETIPLLPASTHREIEMAQKLLNSDLGELINKMKLAQQYVMTSLQQEYKKQMLTAAHALAVDAKNLLDVIDQARLKMLGQTRPH
notes: focal adhesion kinase (FAK), human, residues 892-1052: FAT domain with N-terminal residues preceding the four-helix bundle (922-1049); Expressed as GST fusion from pGex-6P2 and released from the beads with 3C protease; 15N-labelled (M9 medium with 15N-NH4Cl) for the NMR experiments; also called FAT892-1052; FAK FAT; source: E. coli BL21, purified (Glutathione Sepharose 4B, 3C protease, Superdex …)
On to B1, for which the Kd was above 100 µM.

As a reminder, the Kd is the free concentration of one partner at which half of the binding sites on the other are occupied at equilibrium, for simple one-to-one binding.
